Substrate in this data set: N[C@@H](Cc1c[nH]c2ccccc12)C(=O)O
Put plainly: radiolabelled uptake in intact E. coli MQ614. It counts as cell-based, Halalkalibacterium halodurans. The note with it: 10-second uptake, 10 mM Tris/Mes pH 8.5, 150 mM NaCl, labelled compound.

One may read the Km as the concentration of substrate that gives half-maximal velocity.

B1: MhsT (Halalkalibacterium halodurans C-125) (protein)
chain: SLKQQTGREQWASRLGFILAAMGSAVGLGNIWRFSYVTGENGGAAFLLVYLGFIALIGIPIVLAEFTIGRRAQSDAVGSFEKLAPGKPWKVAGLMGVAAGFLILSFYGVIAGWILFYLFNYITGQLWSAPAEGFGGFFEGFIANPTLPLFWQALFMIATIWIVAIGVKKGIERSNKILMPLLGVLLIALAIYSLTLGGAKEGLAFLFSPDWSALKDPGVYLAAISQAFFTLSLGMGALITYGSYVSKDSRLPGAAVSVAGLDTAFAIIAGIMIFPAVFALGLSPSGGPGLVFVVLPDIFDSIRLGPIVGIAFFILLGAAALSSAVSLLEVPVAYFMRKFDWSRKQAAITLGVIITLLGIPSSLSFGVLGEVTIIPGLNIFDSVDFIASSVFLPLGGMIIALFIGWGWKTSDALAESDLTDSVWGKLWILSLRFIAPIAILIVFLSAFQIFFN
Take B1: the Km came to 1.07 ± 0.19 µM.
